Data: the supplement of paper PMC7877785
± gives the uncertainty stated by the source.

Test: self-splicing fitness, log relative to wild type (ln ratio); higher = more splicing; Tetrahymena group I intron in knt gene, E. coli kanamycin selection, DiMSum; sequences stand for … in CUCUCU…GGAGGGAAAAGUUAUCAGGCAUGCACCUGGUAGCUAGUCUUUAAACCAAUAGAUUGCAUCGGUUUAAAAGGCAAGACCGUCAAAUUGCGGGAAAGGGGUCAACAGCCGUUCAGUACCAAGUCUCAGGGGAAACUUUGAGAUGGCCUUGCAAAGGGUAUGGUAAUAAGCUGACGGACAUGGUCCUAACCACGCAGCCAAGUCCUAAGUCAACAGAUCUUCUGUUGAUAUGGAUGCAGUUCACAGACUAAAUGUCGGUCGGGGAAGAUGUAUUCUUCUCAUAAGAUAUAGUCGGACCUCUCCUUAAUGGGAGCUAGCGGAUGAAGUGAUGCAACACUGGAGCCGCUGGGAACUAAUUUGUAUGCGAAAGUAUAUUGAUUAGUUUUGGAGUACUCGUGGUCG
Method in brief: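 DiMSum derived fitness as the error-weighted combination of fold changes across replicates, kanamycin versus no kanamycin, normalised to wild type. E. coli BL21(DE3) held the library, which randomised all eight P1ex-region intron nucleotides within the knt kanamycin-resistance gene on pET-22b(+). Six replicate transformations grew overnight at 37°C or 30°C on LB agar with or without 25 μg/mL kanamycin, also containing 100 μg/mL carbenicillin, 50 μM IPTG and 0.2% rhamnose, and pooled colonies were amplicon-sequenced on an Illumina HiSeq 2500.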

Sequence | self-splicing fitness (ln) (37 °C) | self-splicing fitness (ln) (30 °C)
CGCCAGCAAUAUUACGCCAU | -2.11 ± 0.46 | 
CGCCAGCAAUAUUACGCGAC | -2.15 ± 0.17 | -3.18 ± 0.21
CGCCAGCAAUAUUACGCGAG | -2.97 ± 0.25 | -4.1 ± 0.18
CGCCAGCAAUAUUACGCUCC | -1.36 ± 0.2 | -0.395 ± 0.13
CGCCAGCAAUAUUACGCUGG | -2.2 ± 0.18 | -3.22 ± 0.17
CGCCAGCAAUAUUACGCUUC | -3.27 ± 0.37 | -2.77 ± 0.26
CGCCAGCAAUAUUACGGAAC | -1.52 ± 0.24 | -2.64 ± 0.23
CGCCAGCAAUAUUACGGACA | -0.254 ± 0.11 | -0.882 ± 0.11
CGCCAGCAAUAUUACGGAUA | -1.32 ± 0.21 | -1.77 ± 0.18
CGCCAGCAAUAUUACGGAUG | -1.25 ± 0.087 | -2.64 ± 0.1
CGCCAGCAAUAUUACGGAUU | -0.897 ± 0.097 | -3.66 ± 0.19
CGCCAGCAAUAUUACGGGAA | -1.64 ± 0.1 | -2.84 ± 0.12
CGCCAGCAAUAUUACGGGAU | -2.32 ± 0.28 | -3.96 ± 0.27
CGCCAGCAAUAUUACGGGUU | -2.18 ± 0.12 | -2.64 ± 0.1
CGCCAGCAAUAUUACGGUGA | -1.84 ± 0.11 | -1.98 ± 0.11
CGCCAGCAAUAUUACGUAUC | -3.92 ± 0.42 | -3.94 ± 0.33
CGCCAGCAAUAUUACGUCUU | -1.45 ± 0.2 | -3.58 ± 0.25
CGCCAGCAAUAUUACGUGAA | -1.1 ± 0.14 | -1.76 ± 0.1
CGCCAGCAAUAUUACGUUCC | -1.67 ± 0.37 | -2.71 ± 0.16
CGCCAGCAAUAUUACGUUCG | 0.325 ± 0.086 | -1.18 ± 0.069
CGCGAGCAAUAUUACGAAGC | -1.75 ± 0.45 | 
CGCGAGCAAUAUUACGACAG | -0.403 ± 0.16 | -0.942 ± 0.11
CGCGAGCAAUAUUACGACCA | -2.4 ± 0.29 | -1.71 ± 0.26
CGCGAGCAAUAUUACGACGA | -0.89 ± 0.35 | 
CGCGAGCAAUAUUACGAGAA | -2.08 ± 0.34 | 

Sequence | self-splicing fitness (ln) (37 °C) | self-splicing fitness (ln) (30 °C)
CGCGAGCAAUAUUACGAGAG | -2.92 ± 0.31 | -2.69 ± 0.18
CGCGAGCAAUAUUACGAUGC | -2.16 ± 0.21 | 
CGCGAGCAAUAUUACGAUUA | -1.99 ± 0.35 | -3.1 ± 0.3
CGCGAGCAAUAUUACGCAAC |  | -2.25 ± 0.31
CGCGAGCAAUAUUACGCAGG | -1.88 ± 0.15 | -2.68 ± 0.13
CGCGAGCAAUAUUACGCAUA | -2.14 ± 0.43 | -1.87 ± 0.32
CGCGAGCAAUAUUACGCAUC | -0.312 ± 0.28 | -3.36 ± 0.38
CGCGAGCAAUAUUACGCCUU |  | -2.45 ± 0.43
CGCGAGCAAUAUUACGCUGG | -1.31 ± 0.28 | -1.39 ± 0.18
CGCGAGCAAUAUUACGGAAU | -3.01 ± 0.25 | -3.2 ± 0.2
CGCGAGCAAUAUUACGGAUG | -0.671 ± 0.12 | -2.25 ± 0.17
CGCGAGCAAUAUUACGGCCU | -1.65 ± 0.22 | -2.69 ± 0.26
CGCGAGCAAUAUUACGGCGA | -1.19 ± 0.21 | -2.29 ± 0.24
CGCGAGCAAUAUUACGGCGU | -2.9 ± 0.29 | -4.64 ± 0.34
CGCGAGCAAUAUUACGGGCA | -0.0497 ± 0.11 | -0.464 ± 0.084
CGCGAGCAAUAUUACGGGUA | -2.11 ± 0.24 | -2.5 ± 0.23
CGCGAGCAAUAUUACGGUGG | -1.43 ± 0.13 | -2.1 ± 0.1
CGCGAGCAAUAUUACGUAAA | -2.78 ± 0.15 | -3.8 ± 0.19
CGCGAGCAAUAUUACGUCUU | -2.05 ± 0.24 | -2.32 ± 0.2
CGCGAGCAAUAUUACGUGAU | -3.59 ± 0.37 | -2.82 ± 0.23
CGCGAGCAAUAUUACGUGCC | -2.96 ± 0.48 | -3.8 ± 0.42
CGCGAGCAAUAUUACGUGGG | -2.54 ± 0.21 | -3.81 ± 0.29
CGCGAGCAAUAUUACGUUGA | -2.05 ± 0.2 | -3.51 ± 0.25
CGCUAGCAAUAUUACGAACA | -0.227 ± 0.14 | -0.88 ± 0.11
CGCUAGCAAUAUUACGACAG | 0.297 ± 0.076 | -0.148 ± 0.059
